Test [1] deals with CED-9 (C. elegans) (UniProt P41958). Nature of the test: isothermal titration calorimetry; peptaibol TK titrated into CED-9.
In test [2] the test system is PLM neurons. The test can be described thus: PLM touch cell killing by HBx in C. elegans. It is filed as in vivo.
Method: The presence of GFP-positive PLM neurons was scored using a Nomarski microscope. The data are shown in three categories: both PLM missing (black bars), one PLM missing (gray bars) and no PLM missing (white bars). The y axis represents percentage of each category. Percentage numbers under columns indicate the total PLM missing percentage in each experiment. More than 40 animals were scored in each experiment.
C. elegans strains and cell death assays. Animals were grown and maintained using standard protocols. Germline transformation was used to generate transgenic C. elegans strains expressing HBx and other genes. […] PLM killing by HBx was scored as described in Nat Struct Mol Biol., 2008, 15, 1094-1101.
Quantification of PLM Killings by HBx. PLM neurons were scored in L4 larvae in the presence of the integrated transgene, smIs98 or bzIs8, using a Nomarski microscope equipped with epifluorescence.
Chemical Treatment of C. elegans. Worms were treated with chemicals using an oil-base protocol. […] L4 larval stage hermaphrodite animals were placed onto standard NGM plates seeded with OP50. Oil solutions containing the chemicals were spread (0.8-1.0 ml) onto each plate so that the NGM surface was completely covered by oil. Worms lived at the interface of the NGM medium and the oil. F1 progeny was examined for PLM cell death or the FRET ratio in PLMs.
Test [3] deals with cytosolic Ca^2+ in PLM neurons. Nature of the test: Cameleon FRET cytosolic calcium imaging in PLM neurons (bzIs17). It is filed as in vivo, C. elegans.
From the text: Calcium imaging and analysis. A C. elegans strain with an integrated Pmec-4YC2.12 cameleon transgene (bzIs17) was used to quantify relative cytosolic calcium levels in PLM neurons by the FRET microscopy.
Calcium Imaging and Analysis in C. elegans. A C. elegans strain with an integrated Pmec-4YC2.12 cameleon transgene (bzIs17) was used to quantify relative cytosolic calcium levels in PLM neurons. Animals at the L1 larval stage were immobilized on a 2% agar pad in a solution containing 0.3 M 2,3-butanedione monoxime and 10 mM HEPES (pH 7.2). PLM neurons were visualized using an Axioplan 2 Nomarski Microscope (Zeiss) equipped with a SensiCam CCD camera (PCO Imaging Kelheim, Germany). […] The FRET ratio was calculated by (FRETPLM−FRETbkgnd)/(CFPPLM−CFPbkgnd), where FRETPLM and CFPPLM are the mean fluorescent intensities in the FRET and CFP channels of the PLM neuron and FRETbkgnd and CFPbkgnd are the mean fluorescent intensities in the FRET and CFP channels of a background region adjacent to the PLM neurons.
A C. elegans strain carrying an integrated transgene (bzIs17) that expresses a cameleon Ca^2+ sensor under the control of the mec-4 gene promoter was used to monitor intracellular Ca^2+ in six touch cells through the fluorescence-resonance energy transfer (FRET) assay.
In test [4] the test system is HBV DNA replication. Nature of the test: HBV DNA replication in pHBV-transfected HepG2 cells. It is filed as cell-based, hepatitis B virus. As to conditions: cells transfected with mutant HBV genome HBx(G124L, I127A); 5 μM. The procedure:
Quantification of HBV DNA replication and HBcAg. Southern hybridization analysis and quantitative real-time PCR were used to quantify the amount of HBV replication DNA intermediates isolated from HepG2 cells or from mouse livers. The level of cytoplasmic HBcAg was measured by chemiluminescence using a commercial assay kit.
Southern Blot Analysis. HepG2 cells (3×10 cm plate per sample) transfected with the pHBV replicon (wild-type or mutant) were washed twice with cold phosphate-buffered saline (PBS) and lysed in 750 μl NET buffer (50 mM Tris-HCl pH 7.5, 1 mM EDTA, 100 mM NaCl, 0.5% Nonidet P-40) per 10 cm plate for 1 hour. HepG2 cell lysates were clarified by centrifugation at 12000 g for 30 minutes at 4° C. The supernatant was adjusted to 6 mM CaCl2 and treated with 100 μg/ml of Micrococcal nuclease for 30 minutes at 37° C. The reaction was stopped by addition of EDTA to a final concentration of 25 mM. […]
Quantitative Real-Time PCR Analysis. […] The pHBV plasmid was used as the standard for quantification and serial dilutions from 2×10^8 to 200 IU/ml were prepared. The primer sequences for quantitative PCR were chosen carefully from regions coding for HBV S antigen and Polymerase. […] PCR products were analyzed by fluorescence. […] The measured raw copy number from each reaction was calculated using the CT value of each PCR interpolated against the linear regression of the standard curve. […]

For test [5], the target named is Bcl-2 family proteins. Nature of the test: cell-based or functional assay.
Test [6] has as its target T1, CED-9 (in C. elegans animals) (C. elegans, UniProt P41958 1-280).
T1 sequence: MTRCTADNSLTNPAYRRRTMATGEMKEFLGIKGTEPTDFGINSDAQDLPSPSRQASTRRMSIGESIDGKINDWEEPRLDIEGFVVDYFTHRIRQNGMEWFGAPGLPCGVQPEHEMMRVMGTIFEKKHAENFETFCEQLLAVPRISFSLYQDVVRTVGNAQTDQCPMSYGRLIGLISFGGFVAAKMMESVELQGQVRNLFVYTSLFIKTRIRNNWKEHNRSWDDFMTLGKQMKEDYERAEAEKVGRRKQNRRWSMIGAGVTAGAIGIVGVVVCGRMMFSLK
Nature of the test: cell-based or functional assay.

The target of test [7] is T2, Mcl-1 (human, UniProt Q07820 1-350).
T2 construct: also called anti-apoptotic Bcl-2 family member Mcl-1
T2 sequence (Q07820 whole entry): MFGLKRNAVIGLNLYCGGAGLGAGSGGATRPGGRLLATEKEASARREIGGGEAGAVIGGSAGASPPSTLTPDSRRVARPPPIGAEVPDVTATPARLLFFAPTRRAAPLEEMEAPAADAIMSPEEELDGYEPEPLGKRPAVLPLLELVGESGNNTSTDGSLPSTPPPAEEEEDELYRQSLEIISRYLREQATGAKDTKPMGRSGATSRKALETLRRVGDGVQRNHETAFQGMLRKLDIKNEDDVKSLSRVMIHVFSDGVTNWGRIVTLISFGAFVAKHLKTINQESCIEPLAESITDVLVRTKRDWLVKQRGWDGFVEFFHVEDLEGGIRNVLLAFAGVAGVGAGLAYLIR
Nature of the test: co-immunoprecipitation with anti-HBx antibody from pHBV-transfected HepG2 cells, immunoblot.

Test [8] deals with T3, CED-9(68-251; G169E)-His6 (C. elegans, UniProt P41958 68-251).
T3 construct: range 68-251; also called CED-9(G169E); mutant CED-9(G169E) protein
T3 sequence: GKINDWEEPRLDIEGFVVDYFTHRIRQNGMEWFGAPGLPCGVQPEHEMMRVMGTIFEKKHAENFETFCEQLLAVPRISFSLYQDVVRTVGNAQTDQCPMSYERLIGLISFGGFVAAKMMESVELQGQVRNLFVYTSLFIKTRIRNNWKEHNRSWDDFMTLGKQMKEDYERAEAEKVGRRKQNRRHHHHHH
Nature of the test: GST pull-down, immunoblot.

Test [9] has as its target T4, His6-mBax(1-173) (mouse, UniProt Q07813 1-173).
T4 construct: range 1-173; also called mouse Bax(1-173)
Nature of the test: GST pull-down, immunoblot.

For test [10], the target named is T2, Mcl-1. Nature of the test: co-immunoprecipitation with anti-Flag antibody from HepG2 cells, immunoblot.
Test [11] addresses T5, human Bcl-xL (human, UniProt Q07817 1-233).
T5 construct: also called endogenous Bcl-xL
The test can be described thus: co-immunoprecipitation with anti-HBx antibody from pHBV-transfected HepG2 cells, immunoblot.

Test [12] addresses T5, human Bcl-xL. Nature of the test: co-immunoprecipitation with anti-Flag antibody from HepG2 cells, immunoblot.
For test [13], the target named is T6, CED-9 (Caenorhabditis elegans, UniProt P41958).
T6 sequence (P41958 1-280): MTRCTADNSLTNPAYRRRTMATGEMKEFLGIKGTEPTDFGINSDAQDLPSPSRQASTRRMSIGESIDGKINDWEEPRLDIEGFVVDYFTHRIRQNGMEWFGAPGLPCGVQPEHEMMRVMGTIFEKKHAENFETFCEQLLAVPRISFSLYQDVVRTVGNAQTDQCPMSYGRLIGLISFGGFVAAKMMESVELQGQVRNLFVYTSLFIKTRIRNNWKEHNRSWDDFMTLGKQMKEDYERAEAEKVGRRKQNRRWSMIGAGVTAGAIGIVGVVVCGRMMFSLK
Nature of the test: Isothermal titration calorimetry (ITC), titration of CED-9. It is filed as binding, C. elegans. The conditions noted are these: no peptaibol TK.

The target in test [14] is T7, CED-9 (C. elegans, UniProt P41958 1-251).
T7 sequence (looked up): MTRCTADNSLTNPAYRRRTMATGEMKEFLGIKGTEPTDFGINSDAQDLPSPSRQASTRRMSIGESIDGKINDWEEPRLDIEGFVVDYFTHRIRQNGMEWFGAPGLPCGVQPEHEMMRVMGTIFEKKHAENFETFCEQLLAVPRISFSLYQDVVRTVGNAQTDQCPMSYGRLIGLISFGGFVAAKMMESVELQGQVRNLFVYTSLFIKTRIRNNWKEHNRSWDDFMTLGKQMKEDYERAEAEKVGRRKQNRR
The test can be described thus: isothermal titration calorimetry.

In test [15] the target is CED-9 pre-incubated with peptaibol TK (C. elegans; Trichoderma pseudokoningii) (UniProt P41958). Nature of the test: isothermal titration calorimetry; CED-9 pre-incubated with peptaibol TK, titrated with EGL-1.

Values joined by “and” are separate entries in the source; they are usually repeats but may differ in a detail not shown here. Equal values may be shown once.

T5 sequence (Q07817 whole entry): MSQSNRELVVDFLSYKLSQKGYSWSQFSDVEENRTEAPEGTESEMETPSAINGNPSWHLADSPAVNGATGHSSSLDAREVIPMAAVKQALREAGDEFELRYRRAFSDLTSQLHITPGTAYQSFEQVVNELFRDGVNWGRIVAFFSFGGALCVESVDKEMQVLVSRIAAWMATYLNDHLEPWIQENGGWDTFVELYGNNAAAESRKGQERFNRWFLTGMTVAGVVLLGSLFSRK
T4 sequence (Q07813 other isoform, or with tags, fused parts or gaps limits assumed): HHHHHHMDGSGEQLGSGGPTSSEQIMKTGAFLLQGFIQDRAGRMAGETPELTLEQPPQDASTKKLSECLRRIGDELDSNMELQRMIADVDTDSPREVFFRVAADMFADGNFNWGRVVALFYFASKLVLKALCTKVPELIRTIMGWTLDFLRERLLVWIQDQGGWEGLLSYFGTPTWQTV

For the molecule peptaibol TK (peptide), the Ka in test [1] came to 42600 M⁻¹.

In the case of cyclosporin A [CsA], the “percentage of missing PLM” value in test [2] (smIs98 animals that normally lost 50% of PLM neurons) is recorded as 15%. Further, the PLM death in [2] (smIs98 animals with loss of ced-3) came out at 4%. In addition, the “HBx-induced cytosolic Ca^2+ increase (FRET ratio)” value in test [3] (bzIs17, asp-3(tm4559), smIs451 animals) is recorded as “completely suppressed”.

On to `C[C@H](CCC(=O)O)C[C@H](C)C[C@H](C)C(=O)/C=C(\O)[C@H](C)C[C@H](C)C/C=C/[C@@H](C)[C@@H](O)[C@@H](C)[C@@H](O)C[C@@H]1CC[C@@](C)([C@H]2CC[C@@](C)([C@@H](C)O)O2)O1` [ionomycin], for which the “HBV DNA replication” value in test [4] is on record as “largely rescued”.

On to `C/C=C(/C)C(=O)O[C@H]1C(C)=C2[C@H]([C@@H]1OC(=O)CCCCCCC)[C@@](C)(OC(C)=O)C[C@H](OC(=O)CCC)[C@@]1(O)[C@H]2OC(=O)[C@@]1(C)O` [thapsigargin], for which, in [3] (bzIs17 animals, vs untreated or vector-treated animals), the “FRET ratio in PLM neurons” value is “significantly higher”.

B1: HBx(G124L, I127A), P03165 1-154 (protein)
chain: MAARLCCQLDPARDVLCLRPVGAESRGRPFSGSLGTLSSPSPSAVPTDHGAHLSLRGLPVCAFSSAGPCALRFTSARRMETTVNAHQILPKVLHKRTLGLSAMSTTDLEAYFKDCLFKDWEELLEEARLKVFVLGGCRHKLVCAPAPCNFFTSA
For B1, in test [5], the reduction in HBV DNA replication against the wild-type HBV genome, Q-PCR of viral particles from HepG2 cells was 8 fold and 9 fold; the reduction of replicative DNA intermediates in mouse liver against the wild-type pHBV replicon, southern blot fell in the range of 2 to 3 fold.

B2: HBV x protein (HBx) (other)
chain: MAARLCCQLDPARDVLCLRPVGAESRGRPFSGSLGTLSSPSPSAVPTDHGAHLSLRGLPVCAFSSAGPCALRFTSARRMETTVNAHQILPKVLHKRTLGLSAMSTTDLEAYFKDCLFKDWEELGEEIRLKVFVLGGCRHKLVCAPAPCNFFTSA
notes: also called hepatitis B virus X protein
With B2, the “FRET ratio of cameleon Ca2+ sensor in PLM neurons (cytosolic Ca2+)” value in test [6] was 40%. The binding result in [7] is “no binding”.

B3: GST-HBx (other)
chain: MAARLCCQLDPARDVLCLRPVGAESRGRPFSGSLGTLSSPSPSAVPTDHGAHLSLRGLPVCAFSSAGPCALRFTSARRMETTVNAHQILPKVLHKRTLGLSAMSTTDLEAYFKDCLFKDWEELGEEIRLKVFVLGGCRHKLVCAPAPCNFFTSA
notes: also called pGEX-4T-2-HBx
As for B3, the binding result in [8] and in test [9] was “no binding” throughout.

B4: Flag-HBx (other)
chain: MAARLCCQLDPARDVLCLRPVGAESRGRPFSGSLGTLSSPSPSAVPTDHGAHLSLRGLPVCAFSSAGPCALRFTSARRMETTVNAHQILPKVLHKRTLGLSAMSTTDLEAYFKDCLFKDWEELGEEIRLKVFVLGGCRHKLVCAPAPCNFFTSA
notes: also called pcDNA3.1-Flag-HBx
Turning to B4, the binding result in test [10] is “no binding”.

B5: HBx(G124L, I127A) (other)
chain: MAARLCCQLDPARDVLCLRPVGAESRGRPFSGSLGTLSSPSPSAVPTDHGAHLSLRGLPVCAFSSAGPCALRFTSARRMETTVNAHQILPKVLHKRTLGLSAMSTTDLEAYFKDCLFKDWEELLEEARLKVFVLGGCRHKLVCAPAPCNFFTSA
notes: also called mutant pHBV
B5: the binding result in test [11] is listed as “no binding”.

B6: Flag-HBx(G124L, I127A) (other)
chain: MAARLCCQLDPARDVLCLRPVGAESRGRPFSGSLGTLSSPSPSAVPTDHGAHLSLRGLPVCAFSSAGPCALRFTSARRMETTVNAHQILPKVLHKRTLGLSAMSTTDLEAYFKDCLFKDWEELLEEARLKVFVLGGCRHKLVCAPAPCNFFTSA
notes: also called pcDNA3.1-Flag-HBx(G124L, I127A)
Regarding B6, the binding result in [12] is “no binding”.

B7: EGL-1 (other, C. elegans, UniProt O61667 16-106, looked up)
chain: MSNVFDVQSSVFYNEKNMFYSSSQDFSSCEDSSQFADDSGFFDDSEISSIGYEIGSKLAAMCDDFDAQMMSYSAHASDRSLFHRLLDFFAF
notes: also called BH3-only protein EGL-1
As to B7, the “binding affinity of EGL-1 to CED-9” value in test [13] came to 4.04e+06 M⁻¹. In addition, the figures for the Ka in test [14] and in [15] were 4.04e+06 M⁻¹ and 1.52e+08 M⁻¹, respectively. This molecule also registered a fold of the binding affinity between CED-9 and EGL-1 without peptaibol TK in test [15] of 38 fold.

The values above are taken from US10155020B2, “Compositions and methods for treating hepatitis B” (The Regents of the University of Colorado, a body corporate, priority 2012, dated 2018).
